Measurements taken from patent US8597509B2, “Countercurrent chromatography rotor” (CC Biotech LLC, priority 2008, dated 2013).

Assay: Partition coefficient K in two-phase aqueous system PEG (1000) 12.5%-K2HPO4 12.5%
Format: physicochemical
Conditions: PEG (MW 1000) 12.5%-K2HPO4 12.5% two-phase aqueous solvent system
Description: A determination of the partition coefficient, K, is made by dissolving a small sample into a solvent system, shaking the mixture, and measuring the concentration of the sample in both phases after separation of the phases. That provides the ratio of concentration in the upper to lower phase (Cu/Cl). The phase chosen as the mobile phase is that giving a partition coefficient of 1 to 2. The efficiency of a separation will be determined by use of the conventional gas chromatographic equation: N=(4R/W)^2. The theoretical plates or N is calculated from the shape of the peaks. R is the retention time or volume of the peak maximum and W is the peak width expressed in the same units as R. For preparative separations, the values of N may be up to 1000, but the more important relationship is resolution. Resolution between adjacent peaks is given by: RS=2(VR,2−VR,1)/(W1+W2). Using that equation and substituting each solute retention volume by the following: VR=Vm+KVS. The Vm term cancels giving: RS=2(K2−K1)Vs/(W1+W2).
The apparatus of interest can be used to separate proteins or other large molecules. In this example, the spiral tube support was made as described above and used to purify mouse uteroglobin. Mouse uteroglobin has a MW of […] and normally exists as a dimer; but, in solution, a monomeric form of the protein can also accumulate. A separation was made in the spiral tube support to separate uteroglobin monomers from uteroglobin dimers. This was done by measuring the K value using HPLC and then separating the protein using countercurrent chromatography with the spiral tube support apparatus. […] The heights of the peaks representing the monomer at 31.5 min. and dimer at 32.8 min. HPLC retention time, respectively, were measured and the ratios give different values for the concentration in the upper phase over that of the lower phase. The two protein peaks calculated to K values of 4.0 and 6.9 in PEG (1000) 12.5%-K2HPO4 12.5%. The different K values mean that the two species could be separated with one or the other phase mobile. Since the numeric value is over two, the analyte would remain in the coil a long time, ultimately being eluted in approximately four to seven column volumes. Consequently, a run was performed for two column volumes and then the contents of the column were extruded and analyzed.
In this example, 31 mg lysozyme (14.4 kDa) and 24 mg myoglobin (17.7 kDa) were mixed and separated using the countercurrent chromatography apparatus and methods of use as claimed. A non-denaturing two-phase aqueous solvent system consisting of 12.5% PEG (MW 1000):12.5% K2HPO4 provides for a polyethylene-rich upper phase and phosphate buffer-rich lower phase. The lower phase was used as the mobile phase at a flow rate of 1 ml/min. […]

Substance	K value (concentration in upper phase over lower phase)
lysozyme	1.35
myoglobin	0.38
uteroglobin dimer: dimeric form of mouse uteroglobin protein	6.9
uteroglobin monomer: monomeric form of mouse uteroglobin protein	4.0
